From patent US20190322705A1 (NORWEGIAN UNIVERSITY OF LIFE SCIENCES, published 2019)

How the values were obtained:
Assay in all cases: cell-based or functional assay
[1] = target: RseP of E. faecalis E19>A, expressed in S. pneumoniae ms2 (Enterococcus faecalis) (UniProt Q9RPP2)
[2] = target: RseP of E. faecalis H18>A, expressed in S. pneumoniae ms1 (Enterococcus faecalis) (UniProt Q9RPP2)
[3] = target: RseP of E. faecalis H22>A, expressed in S. pneumoniae ms3 (Enterococcus faecalis) (UniProt Q9RPP2)
[4] = target: RseP of E. faecalis HExxH>AAxxA, expressed in S. pneumoniae ms5 (Enterococcus faecalis) (UniProt Q9RPP2)
[5] = target: RseP of E. faecalis LMGT3358 (WT rseP), expressed in S. pneumoniae ds220 (Enterococcus faecalis) (UniProt Q9RPP2)
[6] = target: RseP of E. faecalis Y24>A, expressed in S. pneumoniae ms4 (Enterococcus faecalis) (UniProt Q9RPP2)
[7] = target: T1, RseP of E. faecalis HExxH>AAxxA, expressed in S. pneumoniae ms5 (Enterococcus faecalis, UniProt Q9RPP2 1-422)
T1 sequence: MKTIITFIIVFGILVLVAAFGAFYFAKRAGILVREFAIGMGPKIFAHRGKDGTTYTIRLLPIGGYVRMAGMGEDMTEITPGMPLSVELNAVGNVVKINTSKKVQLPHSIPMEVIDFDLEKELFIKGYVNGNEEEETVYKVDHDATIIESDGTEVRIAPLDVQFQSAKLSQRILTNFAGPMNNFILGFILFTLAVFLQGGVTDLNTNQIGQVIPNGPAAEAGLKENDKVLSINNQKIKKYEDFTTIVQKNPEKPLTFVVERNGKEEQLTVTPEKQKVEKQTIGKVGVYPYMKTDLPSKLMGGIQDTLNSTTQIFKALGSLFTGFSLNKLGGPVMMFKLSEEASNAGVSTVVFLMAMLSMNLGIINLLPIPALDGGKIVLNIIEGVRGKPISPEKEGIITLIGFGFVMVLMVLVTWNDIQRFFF

LsbB (peptide)
> 7000 nM: MIC (nM), S. pneumoniae ms2 [1] | MIC (nM), S. pneumoniae ms1 [2] | MIC (nM), S. pneumoniae ms3 [3] | MIC (nM), S. pneumoniae ms5 [4] | MIC (nM), S. pneumoniae ds220 induced [5] | MIC (nM), S. pneumoniae ms4 [6]

B1: EntEJ97 (peptide)
peptide: MLAKIKAMIKKFPNPYTLAAKLTTYEINWYKQQYGRYPWERPVA
30 times: fold resistance against the WT RseP strain [7]
